Results published in patent US20250289892A1 (TAIZHOU ENZE MEDICAL CENTER GROUP, published 2025).

How the values were obtained:
[1] = target: T1, antigenic peptide of amino acid sequence at positions 106-126 of a heavy chain of HLA-G molecules … (human); assay: ELISA, peptide coated at 2 ug/ml, antibody titrated; logistic fit
T1 construct: Synthesized peptide, coated on ELISA plates at 2 ug/ml; also called immunogen
T1 peptide: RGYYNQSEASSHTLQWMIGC
Description: (§1) The antigen (SEQ No. 17 [sequence]) was diluted with the coating buffer, with the final concentration of 2 μg/ml, 100 ul/well, and placed at 4° C. overnight; washed with the wash buffer twice, blocked with the blocking buffer at 200 ul/well, incubated at 37° C. for 2 hours; then washed once with the wash buffer. The purified antibody was diluted by 2-fold starting from 200-fold (PBS), and the blank control (blank) was PBS, 100 ul/well, and incubated at 37° C. for 1 hour; and then washed 3 times with the wash buffer. The secondary antibody diluted with PBS by 20,000-fold was added, 100 ul/well, and incubated in a 37° C. incubator for 1 hour; taken out and washed 3 times with a wash buffer. Then the color development was performed with a developing solution of 100 ul/well for 5-15 minutes. Then 50 ul of stop solution was added to each well to stop. The absorbance value was measured at dual wavelengths (450, 630), and a chart was drawn for analysis.

[2] = target: T1, antigenic peptide of amino acid …; assay: ELISA, peptide coated at 2 ug/ml, antibody stock 3.0 mg/mL titrated
Description: as §1

HLA-G2 standard protein = target: T2, HLA-G2 standard protein (human, UniProt P17693-2 25-246, limits assumed); assay: immunoblotting of standard proteins after denaturing PAGE
T2 construct: Standard protein run on denaturing PAGE for immunoblotting
Description: (§2) The denaturing PAGE electrophoresis of the standard proteins of HLA-G isoforms (HLA-G1, HLA-G2, HLA-G3, HLA-G4, HLA-G5, HLA-G6 and HLA-G7) was performed. After semi-dry electroporating, 5% skimmed milk powder was used to block at room temperature for 4 hours, and washed with 0.2% TBS (Tween-20 PBS).

HLA-G7 standard protein = target: T3, HLA-G7 standard protein (human, UniProt P17693-7 25-116, limits assumed); assay: as above
T3 construct: Standard protein run on denaturing PAGE for immunoblotting
Description: as §2

HLA-G3 standard protein = target: T4, HLA-G3 standard protein (human, UniProt P17693-3 25-154, limits assumed); assay: as above
T4 construct: Standard protein run on denaturing PAGE for immunoblotting
Description: as §2

HLA-G6 standard protein = target: T5, HLA-G6 standard protein (human, UniProt P17693-6 25-227, limits assumed); assay: as above
T5 construct: Standard protein run on denaturing PAGE for immunoblotting
Description: as §2

Ka [1]: 9.87e+09 M⁻¹ | antibody dilution factor corresponding to 1/2 OD value [2]: 197000 fold dilution | binding result (HLA-G2 standard protein): no binding | binding result (HLA-G7 standard protein): no binding | binding result (HLA-G3 standard protein): no binding | binding result (HLA-G6 standard protein): no binding
B1: monoclonal antibody (YWHG-4) against HLA-G isoforms (HLA-G1, HLA-G4, HLA-G5) (antibody, V domains shown)
VH: VQLQQSGAEVVRPGTSVKVSCKASGYASTNYLVEWIKQRPGQGLEWIGVINPGSGRIYYSEKFKGKTTLTADKSSSNAYMQLSSLTSDDSAVYFCARHYGNSAWFAYWGQGTLVTVSA
VL: DIVITQDELSLPVSLGDQAAISCRSSQSIVHSNGNTYLEWYLQKPGQSPKLLIYKVSNRFSGVPDRFRGSGSGTDFTLKISRVEAEDLGVYYCFQASHVPYTFGGGTKLEIKR
notes: FITC-labeled in the flow cytometry; also called hybridoma CCTCC NO: 2021204
